Test results published in article PMC8335659.

Biological target: GST-STG^9D
Assay: pull-down; purified GST fusion of the STG C terminus incubated 1 h at 4 °C with lysate of HEK293T cells expressing FLAG-tagged μ2 or μ3, with or without 500 μM MPR^AA or MPR^DD peptide; glutathione Sepharose; blots with anti-FLAG and anti-GST

B1: FLAG-tagged μ3 (natural protein)
chain: MIHSLFLINCSGDIFLEKHWKSVVSQSVCDYFFEAQEKAADVENVPPVISTPHHYLISIYRDKLFFVSVIQTEVPPLFVIEFLHRVADTFQDYFGECSEAAIKDNVVIVYELLEEMLDNGFPLATESNILKELIKPPTILRSVVNSITGSSNVGDTLPTGQLSNIPWRRAGVKYTNNEAYFDVVEEIDAIIDKSGSTVFAEIQGVIDACIKLSGMPDLSLSFMNPRLLDDVSFHPCIRFKRWESERVLSFIPPDGNFRLISYRVSSQNLVAIPVYVKHSISFKENSSCGRFDITIGPKQNMGKTIEGITVTVHMPKVVLNMNLTPTQGSYTFDPVTKVLAWDVGKITPQKLPSLKGLVNLQSGAPKPEENPNLNIQFKIQQLAISGLKVNRLDMYGEKYKPFKGVKYVTKAGKFQVRT
Binder B1 has a percent of μ3 pulled down (GST-STG^9A = 100%) of 21%.
